Five substances from patent publication US20100004165A1, “Novel Protein Transduction Domains and Uses Therefor” (The Arizona Board of Regents, a body corporate acting on …, priority 2005, published 2010) can be followed below.

Where two headings read alike, the source gives them in different places. Square brackets hold non-standard residues; d marks the D form. Ends that are not written are not given here. pS = N[C@@H](COP(=O)(O)O)C(=O)O

In data set [1] the test system is porcine ear skin. Nature of the data set: Fluorescence microscopy of skin sections after peptide application. From the text:
The skin sections (8 μm) were mounted on glass slides. The slides were visualized without any additional staining or treatment through a 20× objective using a Zeiss microscope (Carl Zeiss, Thornwood, N.Y., USA) equipped with a filter for FITC and AxioVision software.

Data set [2] deals with porcine ear skin. Nature of the data set: In vitro skin penetration and transdermal delivery, porcine ear skin in Franz diffusion cell, spectrofluorimetry (Example 3). Conditions: for penetration in both SC and [E+D] compared with nonconjugated P20: all time points studied (0.5-8 h), p<0.05; for transdermal delivery: amount in the receptor phase: detected only at 8 hours post-application; for course of concentration in [E+D]: from 0.5 to 4 hours post-application, no further increase between 4 and 8 hours; for time of maximal rate of penetration in the whole skin (SC+[E+D]): post-application. The procedure:
Fluorescence microscopy was used to visualize the peptides in different skin layers.
Formulations: Except in the experiments involving chemical penetration enhancers, FITC-labeled peptides were dissolved in phosphate-buffered saline (PBS, 10 mM, pH 7.2); the peptide concentration was 100 μM. In the experiment involving penetration enhancers, PBS could not be used as a solvent because of the lipophilic nature of monoolein and oleic acid. Propylene glycol was used as a solvent, since it solubilizes both lipids and peptides. […] The formulations were prepared by mixing monoolein or oleic acid with propylene glycol and adding the peptides to the system immediately thereafter.
Porcine ear skin was used as model skin for in vitro skin penetration studies because of its similarity with human skin, especially regarding histological and biochemical properties and permeability to drugs (33). Freshly excised porcine ears were obtained from a local abattoir. The skin from the outer surface of the ear was carefully dissected; making sure that the subcutaneous fat was maximally removed (34). Maximum care was taken to maintain the integrity of the skin, which was assured by histology. The cleaned porcine ear skin was immediately mounted in a Franz diffusion cell (diffusion area of 1 cm^2; Laboratory Glass Apparatus, Inc, Berkeley, Calif., USA), with the stratum corneum facing the donor compartment (where the formulation was applied) and the dermis facing the receptor compartment, which was filled with PBS (100 mM, pH 7.2, 3 mL). The receptor phase was maintained at 37° C. and under constant stirring. To achieve higher reproducibility, the skin samples were equilibrated to the diffusion cell conditions for 30 minutes before application of any formulation.
PBS solutions or propylene glycol formulations of the peptides (70 μL each) were applied to the skin surface (donor compartment). […] The concentrations of FITC-P20 (SEQ ID NO: 9), FITC-YARA-P20 (SEQ ID NO: 42), and FITC-TAT-P20 (SEQ ID NO: 43) in the skin and receptor phase were determined at 0.5, 1, 2, 4, and 8 hour post-application.
At the end of the experiment, skin surfaces were thoroughly washed with distilled water to remove excess formulation and carefully wiped with a tissue paper. To separate the stratum corneum (SC) from the remaining epidermis (E) and dermis (D), the skin was subjected to tape stripping. The skin was stripped with 15 pieces of adhesive tape (3M, St. Paul, Minn., USA), and the tapes containing the SC were immersed in 3 mL of a water:methanol (1:1 v/v) solution, vortexed for 2 min, and bath sonicated for 30 minutes. The remaining [E+D] was cut in small pieces, vortexed for 2 minutes in 2 mL of a water:methanol (1:1 v/v) solution, and homogenized using a tissue grinder for 1 minute and bath sonication for 30 minutes. The resulting mixture was centrifuged for 1 minute. The peptide present in the receptor phase was concentrated (10×) as follows. Samples (2 mL) of the receptor phase were lyophilized for 24 hours, and the residue was dissolved in 200 μL of a hidroalcoholic (20% of ethanol) solution.
All solutions were subjected to fluorimetry analysis using a Gemini SpectraMax™ platereader (Molecular Devices, Sunnyvale, Calif., USA) with excitation at 495 nm and emission at 518 nm. […] To evaluate the recovery of the peptides from the skin in the extraction procedure, tissues sections (1 cm^2) were spiked with 20 μL of 0.2 and 0.5 mM solutions of the peptides. The skin sections were homogenized using a tissue grinder, vortex-mixer, and bath sonicator, as described above. […] We accounted for such a recovery percentage in the quantification of peptides.

For data set [3], the system named is primary rat astrocyte cells. Nature of the data set: Transduction across cell membranes in primary rat astrocyte cells. It counts as cell-based. Here is the method:
The in vitro model used to assess transduction across cell membranes was primary rat astrocyte cells. Cells were isolated as described (Innocenti et. al., J. Neurosci. 20:1800-1808, 2000), seeded at ˜3×10^4 cells/cm^2, and cultured in full serum (10% FBS in α-MEM) overnight. Some cells were serum starved by culturing in 0.5% FBS for 1-24 hours prior to treatment with transduction peptides.

In data set [4] the test system is porcine ear skin. Nature of the data set: Ex vivo skin transduction, porcine ear skin in modified Franz diffusion cell (Example 2). It counts as in vitro ADME. To be noted: 100 uM, conjugated or alone (FIG. 1, Panel C). Here is the method:
The ex vivo model selected for skin transduction studies was freshly excised porcine ears. […] The system was maintained at 37° C. and under constant stirring. […] The amount of peptides that permeated across the skin was determined in the receptor phase; 1.5 mL of the receptor phase was withdrawn, lyophilized and the residue was suspended in 150 μL of water. […] Standard curves of the peptides were used as reference.

A further data set relates to Rat aorta. Nature of the data set: Vasorelaxation of rat aorta rings pre-contracted with KCl (muscle bath). Here is the method:
Rat aorta was isolated and dissected free from connective and fat tissue. Transverse rings, 3.0 mm in width, were cut and tied to silk suture. The tissue was suspended in a muscle bath containing a bicarbonate buffer (120 mM NaCl, 4.7 mM KCl, 1.0 mM MgSO4, 1.0 mM NaH2PO4, 10 mM glucose, 1.5 mM CaCl2, and 25 mM […], pH 7.4) and equilibrated with 95% O2/5% CO2 at 37° C. The rings were fixed at one end to a stainless steel wire and attached to a force transducer in muscle perfusion system (Radnotti). The rings were then progressively stretched, and the isometric force generated in response to 110 mM KCl (with equimolar replacement of NaCl in bicarbonate buffer) was determined until the consistent maximal force was produced. Agonists and peptide was added directly to the baths. Tissue that was pre-contracted with 110 mM potassium chloride (KCl) followed by 1.0 mM WL-P20 ([…]p[…], pS is phosphoserine) (SEQ ID NO: 10), where pS is phosphoserine) relaxed compared to untreated control (13% relaxation at 10 minutes, 50% relaxation at 30 minutes, and maximum 88% relaxation at ˜60 minutes, FIG. 4). Percent relaxation was calculated relative to maximum force generated with KCl. […] Such a difference may result from different mechanisms of penetration and/or intracellular localization.

Where [5] appears, read: PBS vehicle, 4 hours post-application.

Consider YARAAARQARA, for which, in the data set with porcine ear skin [1], the “localisation of fluorescence in skin layers” value (shortened to “localisation of fluorescence”) was “strong fluorescent staining of SC and viable epidermis”. In the data set with porcine ear skin [2], the “amount penetrated into the skin (SC+[E+D]) relative to amount that permeated across the skin” value was found to be 34 times; the “effect of monoolein or oleic acid on topical or transdermal delivery” value is “failed to further increase”; the “influence of propylene glycol on skin penetration compared to PBS” value is “did not influence”; the “penetration in the SC and [E+D] relative to the control peptide FITC-YKAc” value is given as 8-10 times. The “transdermal delivery: amount found in the receptor phase” value with porcine ear skin [2] is 0.053 ± 0.009 nmol.

Consider YGRKKRRQRRRWLRRASAPLPGLK [TAT-P20], for which the “localisation of fluorescence” value in the data set with porcine ear skin [1] (4 hours post-application) is “strong fluorescence in the SC and viable epidermis”. In the data set with porcine ear skin [2], the “penetration in both SC and [E+D] compared with nonconjugated P20” value is on record as “significantly higher”; the “transdermal delivery: amount in the receptor phase” value is 0.027 ± 0.009 nmol; the “course of concentration in [E+D]” value is on record as “progressively increased”; the “time of maximal rate of penetration in the whole skin (SC+[E+D])” value came to 1 h.

Consider “WL-scrP20: control, the pseudo-monomer WLRRIKA-(WL-scrP20)”, for which the transduction entry in data set [3] (1 μM), in data set [3] (25 μM) and in data set [3] (50 μM) was “no transduction was observed” in each case.

With YGRKKRRQRRR [TAT], the “localisation of fluorescence” value in the data set on porcine ear skin [1] (4 hours post-application) was “strong fluorescent staining of SC and viable epidermis”. Further, the “influence of propylene glycol on skin penetration compared to PBS” value with porcine ear skin [2] (4 hours post-application) is “did not influence”. In addition, in the data set with porcine ear skin [2] (setting [5]), the “amount penetrated into the skin (SC+[E+D]) relative to amount that permeated across the skin” value was determined as 30 times and the “transdermal delivery: amount found in the receptor phase” value is 0.058 ± 0.008 nmol. Besides, the “effect of monoolein or oleic acid on topical or transdermal delivery” value in the data set on porcine ear skin [2] (propylene glycol, monoolein 10% w/w or oleic acid 5% w/w, 4 h) was “failed to further increase”.

With “YARAAARQARAWLRRASAPLPGLK (YARAAARQARAWLRRA[pS]APLPGLK; also: FITC label) [YARA-P20]”, in the data set with porcine ear skin [1] (4 hours post-application), the “localisation of fluorescence” value is “strong fluorescence in the SC and viable epidermis”. For the same substance, the skin penetration result in the data set with porcine ear skin [4] is recorded as “significantly enhanced”. Moreover, in the data set on porcine ear skin [2], the “penetration in both SC and [E+D] compared with nonconjugated P20” value is reported as “significantly higher”; the “transdermal delivery: amount in the receptor phase” value came out at 0.031 ± 0.011 nmol; the “course of concentration in [E+D]” value is “progressively increased”; the “time of maximal rate of penetration in the whole skin (SC+[E+D])” value turned out to be 1 h. In the data set with Rat aorta, the “time of maximum relaxation” value lay in the range of 5 to 10 min.
